2 molecules from patent publication US20090282582A1, “ENVIRONMENTAL STRESS RESPONSIVE PROMOTER AND METHOD OF TISSUE-SPECIFIC GENE EXPRESSION USING THE SAME” (RIKEN, priority 2006, published 2009) can be followed below.

Data set [1] deals with Arabidopsis thaliana (columbia ecotype) plant body. The data set is described as follows: full-length cDNA microarray analysis of gene expression levels after environmental stress application. The conditions noted are these: in vivo. The procedure:
In this example, the gene expression levels at the time of application of various types of environmental stresses were analyzed using microarrays. Specifically, the microarrays described in Seki et al., “Monitoring the expression profiles of 7000 Arabidopsis genes under drought, cold, and high-salinity stresses using a full-length cDNA microarray,” Plant J. 31: 279-292, 2002, were used, and analysis was carried out in accordance with the method similar to the method described therein. Various types of environmental stresses were applied to a plant body under the following conditions. Specifically, low-temperature stress application was carried out by introducing a plate containing a plant body into a low-temperature chamber (4° C.). Dehydration stress application was carried out by capturing the plant body with forceps while refraining from damaging the plant body, roughly removing moisture from the plant body on a Kim Towel, placing the plant body on another plate, placing the plate in a clean bench while leaving the lid open, letting it stand for 2 hours, and then closing the lid. Salt stress application was carried out by dispensing a mixture of MS medium (containing 1% sucrose, 0.1% agar, and 1 mM luciferin) with 250 mM NaCl to the roots of the plant bodies (200 μl per plant body) using a Pipetman. ABA stress application was carried out by dispensing a mixture of MS medium (containing 1% sucrose, 0.1% agar, and 1 mM luciferin) with 100 μM ABA to the roots of the plant bodies (200 μl per plant body) using a Pipetman. As a plant body to which environmental stress is to be applied, Arabidopsis thaliana (columbia ecotype), which had been cultivated on a germination medium containing Murashige and Skoog Salt, 3% sucrose, and […] for 3 weeks, was used. Cultivation conditions were determined so as to maintain the temperature in the chamber at 22° C. with a 16-hour light period and an 8-hour dark period. Total RNA was extracted from plant bodies after environmental stress application or from plant bodies to which no environmental stress had been applied using the TRIZOL Reagent (Life Technologies), and mRNA was extracted using the mRNA isolation kit (Militenyi Biotec Auburn). In accordance with the method described in the above article, mRNA samples were reversely transcribed in the presence of Cy3 dUTP or Cy5 dUTP (Amersham Pharmacia). Microarray analysis was carried out using cDNAs obtained via reverse transcription. Data obtained via microarray analysis were analyzed using the Quantarray Version 2.0 (GSI Lumonics).

The test system of data set [2] is transgenic Arabidopsis thaliana plant body (luciferase reporter gene). The data set is described as follows: luciferase assay of promoter::LUC transgenic plants after environmental stress application. In kind it is in vivo. The conditions noted are these: for Tissue in which specific induction of expression is realized / time after stress application at which activity to induce gene expression is exhibited: Dehydration stress; for time after stress application at which activity to induce gene expression is lowered: dehydration stress, stem and leaf tissue; for Tissue allowing specific induction: summary over stress types. On the procedure: Specifically, promoter regions were isolated from these genes, transgenic plants in which luciferase reporter genes were to be expressed under the control of such promoters were prepared, and tissue specificity of the promoters was inspected via luciferase assay.
In this example, DNA fragments containing promoter regions of the genes identified in Example 1 were recovered via PCR.
The nucleotide sequences of the amplified DNA fragments were determined in accordance with a conventional technique to confirm that mutagenesis, such as substitution or deletion, was not introduced thereinto. After the absence of mutagenesis was confirmed, the recovered DNA fragments were introduced into the vector for promoter analysis (i.e., a vector prepared by introducing the Gateway recombinant sequence (tradename: Gateway Vector Conversion System, Invitrogen) and the luciferase reporter gene into the pGreen vector (Plant Molecular Biology 42: 819-832, 2000)) using the Gateway recombination system to construct a recombinant vector.
The recombinant vector prepared in (1) above was introduced into a plant via Agrobacterium infection. When a gene is introduced via Agrobacterium infection, a process of infecting a plant with Agrobacterium containing a plasmid comprising the target gene construct is necessary. This process was carried out via vacuum infiltration. Specifically, a plant body of Arabidopsis thaliana that had been grown in soil comprising vermiculite and an equivalent amount of pearlite was soaked in a culture solution of Agrobacterium containing the recombinant vector prepared in (1). The resultant was placed in a desiccator, suctioned with a vacuum pump to 65 to 70 mmHg, and then allowed to stand at room temperature for 5 to 10 minutes. The pot was transferred onto a tray, covered with a wrap, and kept moistened. The wrap was removed on the following day, the plant was allowed to grow in that state, and seeds were then harvested.
Subsequently, seeds were sown on MS agar medium to which antibiotic hygromycin has been added in order to select an individual having the recombinant vector prepared in (1). Arabidopsis thaliana that had been grown in this medium was transferred to a pot and allowed to grow therein. Thus, seeds of transgenic plants to which the recombinant vector prepared in (1) has been introduced were obtained.
The seeds of the transgenic plant lineage prepared in (2) were sowed on MS agar medium. The plant body 10 days after sowing was used for luciferase assay.
At the outset, 1 mM luciferin (containing 0.01% Triton-X) was sprayed over the entire plant body 5 times. After the plant body was allowed to stand in the dark for 5 minutes, luciferase luminescence was assayed using ARGUS (assay after treatment for 0 hours). Subsequently, various types of environmental stresses were applied (see below). Low-temperature stress application was carried out by introducing a plate containing a plant body into a low-temperature chamber (4° C.). Dehydration stress application was carried out by capturing the plant body with forceps while refraining from damaging the plant body, roughly removing moisture from the plant body on a Kim Towel, placing the plant body on another plate, placing the plate in a clean bench while leaving the lid open, letting it stand for 2 hours, and then closing the lid. Salt stress application was carried out by dispensing a mixture of MS medium (containing 1% sucrose, 0.1% agar, and 1 mM luciferin) with 250 mM NaCl to the roots of the plant bodies (200 μl per plant body) using a Pipetman. ABA stress application was carried out by dispensing a mixture of MS medium (containing 1% sucrose, 0.1% agar, and 1 mM luciferin) with 100 μM ABA to the roots of the plant bodies (200 μl per plant body) using a Pipetman.
Luciferase luminescence was assayed 2, 5, and 10 hours after the above various types of environmental stresses had been applied using the ARGUS system (Hamamatsu Photonics). […]

B1: Promoter of RAFL06-16-J10: environmental stress responsive promoter DNA, SEQ ID NO: 5, upstream of At2g06050 (OPR3 gene) (nucleic acid, listed as Arabidopsis thaliana)
DNA: CCTGGGACTTGGGCTGAGAATAATGAAGTGGCTGGGAAATGATTAGTTAAGGATGGCTTGATGAATTCTCAATATTCTGTTGAGGGAACAAAATATACTAGGAAGGATGCAAGTCCAGTTTGGTCTAAACCATTGTACGAACCAAAAACAATCAATAAAGTAACTCAGGGCTCACAAATGGTCGATAATATTTCTAAAGTTTCAGTTCTAGAGGATGAGCAAAAGGATTTGATGATGGGAGATGTACTAGAGGTACAAGACAAGAGTCTCACTGAAGGGTTGAATTTCAGATATTTTAAATCACGTTTGGAGTAACAAAAAACAAATGTGAGAAGGAGCTCAATTAGCTCCAACTGAATCTAGTGTTATTAGGGATACTTTGGAAACTCCAATTCAATCTTTAAGATGTAGGATTGATGAATTCATGGAAATCGGCAGATCCATCTATGAATTTAGTATGGTGGTGTTTCCTAGGAATTGACAATACAATTTTACTTGGTGCAAAGTGTCTTCGGAGGTGTCCCTTTCTTTTTCACTCGGAATTGGAAGTTTTAATATTGGCAATAAAAAATATCCTTTCAAGAAGGATAAAGTGTCAGGCATTTGAAACAGATAATTATTCAGAGTAAGTTTTGATGGTACAGTCCCCTGAAGAATGACTCGCTTTCTCTAATTTTTTAGAAGATCTTGAATTGCTATGTGTCTCCTTTTCTTGCTTTCTTCTATTTCATGTTTATGTAATACTAAGGCAAACTATTTAGCACAATATTCTAAACTTTTATTTTCTGAAGTTATTTTTTAAACCCTTTCCCTCCTAATTGGACAACCAATCATGGAATTAGTTTTTACGTAATGTTTTAAACTCACTATTTCACCTTTATTCTGACCTGTTAATGGAAGACAACTATGACTTTATACATTGAAATGTTGTCAACCTGTTATATATTAATGTTAACATAGCTAATGACCTATCAATGTACGTAAAGCGAATGTCAATCATATTCGTATCCGTTAATTTCATTTAGGAAATCAGGCTCATTGCCAATCCACTAAGAAACATCTCTGATAGATCCAAATAATAAAAATAATATAATATGAAGCAAAATAGAACGAAATATCTCACGCGGACCAAACTTTGAACTTTATTATAAAACAAATCAGCACGTGAAAGTAATGGTCGGTTCGGTCCAAGATGCCAAGAACTCCTCCGGTCCATCCATCAACCTAACCTTTTTTGGATATAAAATTTAGCAAATTCCATTTCCACGACCACACAACAACAACACATCCACTCGAATTTTCTATTTCCGAATAACAAAACCGGTAAACTCATCACAAACTTAAGTTACTTTGTAGTTTGTGTTTTGTCCTTTTATGTAATGAAGAAGATCCAACTAACTACTACTCAATATTTTTGTATTGACCGTTGATTTCTCAGATCTGACTTTTACTTCTCCTTCTTCCAGATCGGCGGAGAC
With B1, the “Environmental stress type to which the promoter responds” value in data set [1] was “Dehydration and salt”. Also, in data set [2], the “Tissue in which specific induction of expression is realized” value (shortened to “Tissue in which specific induction”) was “Stem and leaf tissue”; the “time after stress application at which activity to induce gene expression is exhibited” value is on record as “about 2 hours”; the “time after stress application at which activity to induce gene expression is lowered” value is given as “about 10 hours”; the “Tissue allowing specific induction” value is “Stem and leaf tissue”. Moreover, in data set [2] (listed as promoter of RAFL06-16-J10), the “Tissue in which specific induction” value was “stem and leaf tissue”.

B2: Promoter of RAFL07-08-I12: environmental stress responsive promoter DNA, SEQ ID NO: 6, upstream of At2g26530 (homolog of calmodulin-binding protein) (nucleic acid, listed as Arabidopsis thaliana)
DNA: CGGGTTTTATTTTGGAATTGGGTTATATGGTGGATGTATTTGAATCAATATTTATAAAAATTTAACAATTATCTCATGGATTCGTGGTATAACGTTACCTAATAACAATTATAAACTGTAAAATAAAAATATTTTATAAAAATAAAATTTGCAAGTTTTAATATATATTACTTTTAAAAAATAAATCGTCCCGCGGTATACCGCGGGTTAAAATCTAGTCTATGTTTATTATAAAAGAATACAATGTATTAATGTATAAATTATCTTATGCATGAGCACGATGATCATCTAGTAGTATACATCTTACCCGTCGACAAAAACAAAATGTTCCTTATCCAGTATCTAGATGGATCGTGTGAACTCAATTCTACGTAGAACACAAAAGTCCTCTCGTTTGGTCACTGAATTAATTTGAACGATATTATTTATTAGGACCACCGGTTAAATTGGCCTCGTGGTCTAAATATGCCTTCGAATGGTCCAACAACCATGTGGTCAATGCCGACTATGAAAATGACTGAAAATTCAAAACATGTAAGTGGGTTACCACCACTTATCATTATGTTCCAAATCGTTTGCATTAAACAACTTTATTTCGACACATGCGGTCTGAAAAGGCGGCCAATTAATTTACGTTAATCATCGTTTACTATTATTATCTTCGGAATATTTCCAACACAATCAATCTAGTTGGTTCCAATTCTCATCACATATTTTATTTTATAGTTTAAAGTCTTTCAATTCAGTAGTCTAACTGTATAACATATGACTTCGAACAGATTGATATAGACCACTCAATCTAATAATATCGTTTTAGCTACGAAGAGTATACAAAAAAAGCTAGTTGGATAGTTTAAAAATTAAATGCTAGAAGAATGTTGGATATATCAAACAATAAAATTAATATTTAGAGAGAAAATATCGTAATAGAGTTTTTTCTATAAATAAATTTTTGAGTTAAAAAATATTATTAGCCTGACCAAACTCTTTTTATTTCTTTAAACTATGACAGTAAGATCTAAATTTTAATAAACCAATGTTTATTTAATATTTTCAGAAATGGGCTAAAAATGACTAGTTGTTGTATGTGTTTCCTTTGAATAAAAGCTCAACAAACAAAAACTAGAAGTCATTATGTAAAAAAACTAATGACATAGTATTAGGTATTTTTTGCAAATTATTCACACATGTTGCCAAAAGTTGTTTTTTATATTATATGTTTGGTCAGCGAAAACGGTTTAAAGCACTCTCTCTTTCCTCTCGCCTTCCTTTGATGATCCTTTTTAGTTCCCTTCTTCTCATTGCTCTTGAGACCATCTCCGAACTCAAAGGAAACTAGAAACA
Regarding B2, the “Environmental stress type to which the promoter responds” value in data set [1] was “Dehydration and salt”. Besides, in data set [2], the “Tissue in which specific induction” value was “Stem and leaf tissue”; the “time after stress application at which activity to induce gene expression is exhibited” value is recorded as “about 2 hours”; the “time after stress application at which activity to induce gene expression is lowered” value is recorded as “about 5 hours”; the “Tissue allowing specific induction” value is “Stem and leaf tissue”. In addition, the “Tissue in which specific induction” value in data set [2] (listed as promoter of RAFL07-08-I12) was “stem and leaf tissue”.
